Data taken from article PMC6549151 (2019).

Molecular target: GPIIb/IIIa (Homo sapiens, UniProt P08514)
Test: spectrofluorometry titration

Binder: PESGRCRGHLRRIYYNLES [RusPep (Rusvikunin-II peptide)]
- Kd: 1600 nM
